Measurements as given in article PMC6125214 (Cancer immunology research, 2018).

How the values were obtained:
human Siglec-6-Fc = human Siglec-6-Fc (Homo sapiens, UniProt O43699); test: SPR
human CD22-Fc = human CD22-Fc (Homo sapiens, UniProt P20273); test: ELISA
human CD33-Fc = human CD33-Fc (Homo sapiens, UniProt P20138); test: ELISA
human Siglec-8-Fc = human Siglec-8-Fc (Homo sapiens, UniProt Q9NYZ4); test: ELISA
Chain of human Siglec-8-Fc (Q9NYZ4 17-363): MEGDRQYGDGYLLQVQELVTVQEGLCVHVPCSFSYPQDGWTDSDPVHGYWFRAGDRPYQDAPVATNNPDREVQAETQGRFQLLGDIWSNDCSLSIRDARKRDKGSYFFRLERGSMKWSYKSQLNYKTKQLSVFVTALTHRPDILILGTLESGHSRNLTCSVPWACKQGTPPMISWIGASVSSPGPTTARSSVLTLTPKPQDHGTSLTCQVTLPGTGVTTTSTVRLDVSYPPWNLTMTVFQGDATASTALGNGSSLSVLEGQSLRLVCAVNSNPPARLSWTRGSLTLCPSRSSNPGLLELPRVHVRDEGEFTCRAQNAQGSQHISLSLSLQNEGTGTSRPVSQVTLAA

Chain of human CD33-Fc (P20138 18-259): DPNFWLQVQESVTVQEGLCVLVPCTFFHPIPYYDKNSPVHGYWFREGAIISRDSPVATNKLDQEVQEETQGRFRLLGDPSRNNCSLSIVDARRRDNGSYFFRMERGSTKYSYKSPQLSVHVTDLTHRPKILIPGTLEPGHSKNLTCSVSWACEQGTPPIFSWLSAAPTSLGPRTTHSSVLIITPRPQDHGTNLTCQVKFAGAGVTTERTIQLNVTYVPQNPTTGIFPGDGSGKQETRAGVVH
Chain of human Siglec-6-Fc (O43699 27-347): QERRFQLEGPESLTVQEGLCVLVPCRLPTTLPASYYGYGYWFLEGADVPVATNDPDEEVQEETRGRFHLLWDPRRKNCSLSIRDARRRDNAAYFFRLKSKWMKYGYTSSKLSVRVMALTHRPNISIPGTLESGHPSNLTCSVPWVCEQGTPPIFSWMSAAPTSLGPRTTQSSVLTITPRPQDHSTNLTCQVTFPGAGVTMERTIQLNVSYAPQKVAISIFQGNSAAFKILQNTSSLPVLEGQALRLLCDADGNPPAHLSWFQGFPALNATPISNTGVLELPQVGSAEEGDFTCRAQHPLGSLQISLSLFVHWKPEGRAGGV
Chain of human CD22-Fc (P20273 20-687): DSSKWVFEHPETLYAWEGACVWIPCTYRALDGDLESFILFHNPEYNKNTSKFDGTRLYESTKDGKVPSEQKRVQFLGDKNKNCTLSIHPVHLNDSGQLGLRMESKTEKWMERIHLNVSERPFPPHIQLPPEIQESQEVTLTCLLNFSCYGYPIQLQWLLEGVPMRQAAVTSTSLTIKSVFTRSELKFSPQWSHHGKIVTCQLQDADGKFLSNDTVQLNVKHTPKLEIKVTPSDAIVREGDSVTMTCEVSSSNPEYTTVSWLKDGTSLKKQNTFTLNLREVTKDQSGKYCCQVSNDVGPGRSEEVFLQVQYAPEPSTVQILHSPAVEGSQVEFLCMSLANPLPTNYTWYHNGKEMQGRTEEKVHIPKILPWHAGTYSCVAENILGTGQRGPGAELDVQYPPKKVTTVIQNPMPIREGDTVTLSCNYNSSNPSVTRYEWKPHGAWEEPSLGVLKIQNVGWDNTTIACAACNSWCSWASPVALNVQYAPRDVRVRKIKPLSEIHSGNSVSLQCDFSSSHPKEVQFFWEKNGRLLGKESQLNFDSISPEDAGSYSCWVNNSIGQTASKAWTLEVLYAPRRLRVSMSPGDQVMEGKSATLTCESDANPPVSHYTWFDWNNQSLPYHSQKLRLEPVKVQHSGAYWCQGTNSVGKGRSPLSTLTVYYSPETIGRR

B1: JML-1 Fab (Fab, V domains shown)
VH: KVQLLESGGGLVQPGRSLRLSCAASGFTFDDYGMHWVRQAPGKGLEWVSGISWNSGSIGYADSVKGRFTISRDNSKNTLYLQMNSLRAEDTAVYYCARGGQTIDIWGQGTMVTVSS
VL: not shown
B1 gave a Kd (human Siglec-6-Fc) of 2.8 nM.

B2: JML-1 IgG1 (antibody, V domains shown)
VH: KVQLLESGGGLVQPGRSLRLSCAASGFTFDDYGMHWVRQAPGKGLEWVSGISWNSGSIGYADSVKGRFTISRDNSKNTLYLQMNSLRAEDTAVYYCARGGQTIDIWGQGTMVTVSS
VL: not shown
B2: no binding (tested: 1 μg/mL) (human CD22-Fc); no binding (tested: 1 μg/mL) (human CD33-Fc); no binding (tested: 1 μg/mL) (human Siglec-8-Fc).
